B1: CCDC6 (parent)
chain: ASVTIQARAEQEEEFISNTLFKKI
B2: ZNF449 (parent)
chain: TLHQRTHTEERPFKCNYCGKSFRQ

Variants of: B1
Experiment: protein stability index of a GFP-peptide fusion (GPS, HEK-293T) (PSI 1-6); higher = more stable
Conditions: c terminus: a fixed tail appended
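Note: lentivirally expressed fusions sorted by FACS into six bins by GFP to DsRed ratio, PSI derived from sequencing read proportions per bin multiplied by bin number.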

Protein stability index, by site and new letter:
I16: D 4.34 | E 4.53 | F 3.49 | G 4.43 | H 4.28 | K 4.53 | L 3.94 | M 3.82 | N 4.57 | P 4.35 | Q 4.66 | R 3.92 | S 4.25 | T 3.95 | V 4.05 | W 2.92 | Y 3.42
S17: A 3.64 | C 2.8 | D 4.38 | E 3.9 | F 2.98 | G 3.5 | H 3.58 | I 2.85 | K 4.03 | L 3.35 | M 3.06 | N 3.59 | P 3.92 | Q 3.77 | R 3.26 | T 4.27 | V 3.18 | W 2.54 | Y 2.9
N18: A 3.27 | C 2.79 | D 4.34 | E 4.09 | F 2.27 | G 3.6 | H 3.41 | K 3.87 | L 2.56 | M 2.34 | P 3.96 | Q 3.42 | R 3.07 | S 3.54 | T 3.75 | V 1.5 | W 2.43 | Y 2.07
T19: A 3.49 | C 3.25 | D 3.77 | E 3.81 | F 2.72 | G 4.04 | H 3.36 | I 2.94 | K 3.72 | L 2.82 | M 3.03 | N 3.12 | P 4 | Q 3.86 | R 3.84 | S 3.47 | V 3.21 | W 3.13 | Y 2.96
L20: A 3.94 | C 3.9 | D 4.76 | E 4.51 | F 3.46 | G 4.66 | H 4 | I 3.89 | K 4.15 | M 4.44 | N 4.42 | P 4.14 | Q 4.62 | R 4.09 | S 4.68 | T 4.64 | V 3.82 | W 2.91 | Y 3.69
F21: A 4.66 | C 4.76 | D 4.87 | E 4.93 | G 4.71 | H 3.88 | I 3.58 | K 4.7 | L 4.78 | M 4.46 | N 4.42 | P 4.52 | Q 5.01 | R 4.54 | S 4.37 | T 4.49 | V 4.39 | W 3.39 | Y 3.72
K22: A 2.87 | C 2.17 | D 3.49 | E 3.74 | F 1.94 | G 3.49 | H 3.5 | L 2.19 | M 1.74 | N 3.98 | P 4.13 | Q 3.7 | R 2.92 | S 3.64 | T 2.86 | V 1.91 | W 2.1 | Y 2.21
K23: A 3.23 | C 2.96 | D 3.21 | E 3.89 | F 2.01 | G 3.21 | H 3.08 | I 2.52 | L 2.11 | M 2.35 | N 3.37 | P 3.19 | Q 3.17 | R 3.28 | S 3.04 | T 3.34 | V 2.73 | W 2.23 | Y 1.98
I24: A 4.14 | C 4.52 | D 4.85 | E 4.58 | F 3.66 | G 4.48 | H 4.37 | K 4.8 | L 4.23 | M 3.83 | N 4.71 | P 4.25 | Q 4.36 | R 4.03 | S 4.17 | T 4.76 | V 3.71 | W 3.59 | Y 3.56

Variants of: B2
Experiment: as above
Conditions: c terminus: a fixed tail appended

Protein stability index, by site and new letter:
T1: A 2.12 | C 3.64 | D 2.46 | E 2.64 | F 2.08 | G 2.89 | H 2.66 | I 2.21 | K 3.28 | L 2.04 | M 2.39 | N 2.87 | P 2.56 | Q 2.19 | R 2.02 | S 3.59 | V 3.17 | W 2.01 | Y 2.01
L2: A 2.95 | C 3.15 | D 2.77 | E 3.64 | F 3.22 | G 3.08 | H 2.45 | I 2.17 | K 2.74 | M 2.58 | N 2.59 | P 2.88 | Q 2.41 | R 2.75 | S 2.7 | T 2.27 | V 2.4 | W 1.83 | Y 2.64
H3: A 2.76 | C 3.27 | D 2.62 | E 2.87 | F 2.47 | G 2.4 | I 1.99 | K 2.89 | L 1.85 | M 2.25 | N 2.62 | P 2.66 | Q 2.83 | R 2.82 | S 2.1 | T 2.42 | V 1.98 | W 2.82 | Y 2.15
Q4: A 2.08 | C 3.33 | D 2.41 | E 2.85 | F 2.42 | G 2.12 | H 1.73 | I 1.71 | K 2.94 | L 1.9 | M 2.08 | N 2.75 | P 2.92 | R 3.24 | S 2.12 | T 2.67 | V 2.38 | W 2.24 | Y 2.03
R5: A 2.44 | C 4.17 | D 2.91 | E 3.05 | F 1.78 | G 1.83 | H 2.73 | I 1.97 | K 2.77 | L 2.24 | M 1.76 | N 1.65 | P 2.12 | Q 1.89 | S 2.45 | T 2.45 | V 3.27 | W 2.15 | Y 2.4
T6: A 2.38 | C 3.06 | D 2.56 | E 2.67 | F 1.76 | G 1.85 | H 1.55 | I 2.33 | M 2.03 | N 2.08 | P 1.76 | Q 2.54 | R 2.28 | S 3.12 | W 2 | Y 2.25
H7: A 1.65 | C 2.66 | D 2.65 | E 2.5 | F 2.13 | G 1.97 | I 2.37 | K 2.27 | L 2 | M 2.29 | N 2.12 | P 2.43 | Q 2.88 | R 2.48 | S 2.4 | T 2.8 | V 4.2 | W 2.88 | Y 1.94
T8: A 2.29 | C 2.3 | D 2.62 | E 3.07 | F 2.34 | G 2.04 | H 1.18 | I 2.56 | K 3.13 | L 1.64 | M 2.6 | N 1.94 | P 2.4 | Q 2.69 | R 1.99 | S 2.65 | V 2.59 | W 1.82 | Y 2.54
E9: A 2 | C 2.4 | D 2.15 | F 1.25 | G 2.97 | H 2.71 | I 1.8 | K 3.15 | L 1.2 | N 1.88 | P 1.93 | Q 2.72 | R 2.26 | S 2.55 | V 1.76 | W 1.77 | Y 2.19
E10: A 1.95
